Measured values as given in publication PMC5934765.

Molecular target: α-synuclein (AS) expressed in non-mitotic SH-SY5Y cells, P37840
Test: proximity ligation
Settings: remark: other sources report otherwise

reduction of the PLA signal by 0.5 μM CPA: 50%
B1: SERCA2 in SH-SY5Y cells, P16615 1-1042 (enzyme)
chain: MENAHTKTVEEVLGHFGVNESTGLSLEQVKKLKERWGSNELPAEEGKTLLELVIEQFEDLLVRILLLAACISFVLAWFEEGEETITAFVEPFVILLILVANAIVGVWQERNAENAIEALKEYEPEMGKVYRQDRKSVQRIKAKDIVPGDIVEIAVGDKVPADIRLTSIKSTTLRVDQSILTGESVSVIKHTDPVPDPRAVNQDKKNMLFSGTNIAAGKAMGVVVATGVNTEIGKIRDEMVATEQERTPLQQKLDEFGEQLSKVISLICIAVWIINIGHFNDPVHGGSWIRGAIYYFKIAVALAVAAIPEGLPAVITTCLALGTRRMAKKNAIVRSLPSVETLGCTSVICSDKTGTLTTNQMSVCRMFILDRVEGDTCSLNEFTITGSTYAPIGEVHKDDKPVNCHQYDGLVELATICALCNDSALDYNEAKGVYEKVGEATETALTCLVEKMNVFDTELKGLSKIERANACNSVIKQLMKKEFTLEFSRDRKSMSVYCTPNKPSRTSMSKMFVKGAPEGVIDRCTHIRVGSTKVPMTSGVKQKIMSVIREWGSGSDTLRCLALATHDNPLRREEMHLEDSANFIKYETNLTFVGCVGMLDPPRIEVASSVKLCRQAGIRVIMITGDNKGTAVAICRRIGIFGQDEDVTSKAFTGREFDELNPSAQRDACLNARCFARVEPSHKSKIVEFLQSFDEITAMTGDGVNDAPALKKAEIGIAMGSGTAVAKTASEMVLADDNFSTIVAAVEEGRAIYNNMKQFIRYLISSNVGEVVCIFLTAALGFPEALIPVQLLWVNLVTDGLPATALGFNPPDLDIMNKPPRNPKEPLISGWLFFRYLAIGCYVGAATVGAAAWWFIAADGGPRVSFYQLSHFLQCKEDNPDFEGVDCAIFESPYPMTMALSVLVTIEMCNALNSLSENQSLLRMPPWENIWLVGSICLSMSLHFLILYVEPLPLIFQITPLNVTQWLMVLKISLPVILMDETLKFVARNYLEPGKECVQPATKSCSFSACTDGISWPFVLLIMPLVIWVYSTDTNFSDMFWS
